This test addresses HAF protein (trimeric recombinant H5N1 hemagglutinin ectodomain with the bacteriophage T4 fibritin fold on trimerization sequence) (influenza A virus A/Anhui/1/2005 (H5N1) | bacteriophage T4). The test is described as follows: SEC; […], running buffer pH 8.0 ([…].

In the case of “HAF protein (trimeric recombinant H5N1 hemagglutinin ectodomain with the bacteriophage T4 fibritin fold on trimerization sequence)”, the stoichiometry N came to 3.

These data come from article PMC6288289.
